Test results published in US20220033501A1 (SHANGHAI PHARMAEXPLORER, published 2022).
Where a chain is given by its changes, count along the chain named.

T1: murine TIM-3 protein with hFc tag (mTIM-3-hFc protein) (mouse; human, UniProt Q8VIM0 29-191)
T1 construct: Made in HEK293 cells; also called mouse TIM-3 extracellular domain protein; not shown: human IgG Fc fragment (hFc) of the pCpC vector
T1 chain: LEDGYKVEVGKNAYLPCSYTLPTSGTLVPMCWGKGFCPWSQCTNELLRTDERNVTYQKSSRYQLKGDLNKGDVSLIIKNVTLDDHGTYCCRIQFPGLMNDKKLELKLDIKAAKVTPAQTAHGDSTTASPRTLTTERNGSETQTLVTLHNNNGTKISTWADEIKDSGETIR

B1: 34B6D8 fully human TIM-3 antibody (human IgG4, kappa) (antibody, V domains shown)
VH: EVQLVESGGGLVQPGGSLRLSCAASGFTFSTYWMTWVRQAPGKRLEWVANIKQGGGDKYYVDSVKGRFTISTDNAKNSLYLQMNSLRAEDTAVYYCARGSNWFDPWGQGTLVTVSS
VL: EIVMTQSPATLSMSPGERATLSCRASQSVYDNLAWYQQKPGQAPRLLIYGASTRATGIPARFSGSGSGTEFTLTISSLQSEDFALYYCQQYTHWPITFGQGTRLEIK
B2: 18D2H2 fully human TIM-3 antibody (human IgG4, kappa) (antibody, V domains shown)
VH: B1 VH with G10D, K43R, R44G, G54D, G56S, D57A, I70L, T72R, N74D, P105Y
VL: ETVMTQSPATLSVSPGERATLSCRANQNVYSNLAWYQQKPGQAPRLLIYDASTRATGFPARFSGSGSGTEFTLTISSLQSEDFAVYYCQQYNNWPLTFGGGTKVEIK
B3: 39E5H1 fully human TIM-3 antibody (human IgG4, kappa) (antibody, V domains shown)
VH: B1 VH with T31S, T35S, R44G, Q53R, G56S, D57E, K58R, T72G, L79V
VL: B1 VL with I2T, T10I, M13V, D31S, P40L, G50D, L85V, T92N, H93N
B4: 215A8F2 fully human TIM-3 antibody (human IgG4, kappa) (antibody, V domains shown)
VH: QVQLQQWGAGLLKPSETLSLTCTVYGGSFSGYYWNWIRQPPGKGLEWLGEINHSGSTNYNPSLKRRVTISVDTSKNQFSLKLSSVTAADTAVYYCARVYYYGPFDFWGQGTLVTVSS
VL: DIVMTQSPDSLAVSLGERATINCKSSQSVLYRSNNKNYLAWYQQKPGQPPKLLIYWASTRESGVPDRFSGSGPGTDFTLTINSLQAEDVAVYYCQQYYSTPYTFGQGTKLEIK
B5: 57F4E5 fully human TIM-3 antibody (human IgG4, kappa) (antibody, V domains shown)
VH: EVQLVESGGGLVQPGGSLRLSCAASGFTFSSYWMSWVRQAPGKGLEWVANIKQDGSEKYYVDSVKGRFTISRDSAKNSLYLQMNSLRAEDTAMYFCARDSNFFDYWGQGTLVTVSS
VL: B2 VL with N26S, N28S, Y30S, Q38R, D50F, A51S, F58I
B6: 134H3G6 fully human TIM-3 antibody (human IgG4, kappa) (antibody, V domains shown)
VH: EVQLVESGGGLVQPGGSLRLSCAASGFTFSNSWMTWVRQAPGKGLEWVANIKQAGTEKYYVDSVKGRFTISRDNAKNSLYLQMNSLRAEDTAVYYCNSGSNYFDYWGQGTLVTVSS
VL: B2 VL with T2I, N26R, V29F, D50G, F58I
B7: 7A4F10 fully human TIM-3 antibody (human IgG4, kappa) (antibody, V domains shown)
VH: EVQLLESGGGLVQPGGSLRLSCAASGFTFRTHLISWVRQAPGKGLEWVAAITGSGGSTYYADSVKGRFIISRDNSKNTLFLQMNSLRAEDTAVYYCAKDGGSGSYDDFWGQGTLVTVSS
VL: ETVLTQSPVTLSLSPGERATLSCRASQSVGSYLAWYQQKPGQAPRLLIYDASNRATGIPARFSGSGSGTDFTLTISSLEPEDFAVYYCQQRSNWPPTFGQGTKVEIK

Target: T1, murine TIM-3 protein with hFc tag …
Experiment: ELISA, coated mTIM-3-hFc

Binding result, no binding (tested: 66.667 nM):
B1
B2
B3
B4
B5
B6
B7
